Test results taken from paper PMC8932525 (The Journal of Cell Biology, 2022).

Columns and labels:
[1] = target: nuclear pore complexes (NPCs) in endoKap-depleted digitonin-permeabilized HeLa cells (human (endogenous in HeLa)); test: permeabilized cell assay, confocal fluorescence microscopy
[2] = target: CRM1 (exportin 1/chromosomal maintenance 1) (UniProt O14980 1-1071); test: SPR
importin-5 (Imp5) = target: T1, importin-5 (Imp5) (UniProt O00410 1-1097); test: SPR
T1 sequence (looked up): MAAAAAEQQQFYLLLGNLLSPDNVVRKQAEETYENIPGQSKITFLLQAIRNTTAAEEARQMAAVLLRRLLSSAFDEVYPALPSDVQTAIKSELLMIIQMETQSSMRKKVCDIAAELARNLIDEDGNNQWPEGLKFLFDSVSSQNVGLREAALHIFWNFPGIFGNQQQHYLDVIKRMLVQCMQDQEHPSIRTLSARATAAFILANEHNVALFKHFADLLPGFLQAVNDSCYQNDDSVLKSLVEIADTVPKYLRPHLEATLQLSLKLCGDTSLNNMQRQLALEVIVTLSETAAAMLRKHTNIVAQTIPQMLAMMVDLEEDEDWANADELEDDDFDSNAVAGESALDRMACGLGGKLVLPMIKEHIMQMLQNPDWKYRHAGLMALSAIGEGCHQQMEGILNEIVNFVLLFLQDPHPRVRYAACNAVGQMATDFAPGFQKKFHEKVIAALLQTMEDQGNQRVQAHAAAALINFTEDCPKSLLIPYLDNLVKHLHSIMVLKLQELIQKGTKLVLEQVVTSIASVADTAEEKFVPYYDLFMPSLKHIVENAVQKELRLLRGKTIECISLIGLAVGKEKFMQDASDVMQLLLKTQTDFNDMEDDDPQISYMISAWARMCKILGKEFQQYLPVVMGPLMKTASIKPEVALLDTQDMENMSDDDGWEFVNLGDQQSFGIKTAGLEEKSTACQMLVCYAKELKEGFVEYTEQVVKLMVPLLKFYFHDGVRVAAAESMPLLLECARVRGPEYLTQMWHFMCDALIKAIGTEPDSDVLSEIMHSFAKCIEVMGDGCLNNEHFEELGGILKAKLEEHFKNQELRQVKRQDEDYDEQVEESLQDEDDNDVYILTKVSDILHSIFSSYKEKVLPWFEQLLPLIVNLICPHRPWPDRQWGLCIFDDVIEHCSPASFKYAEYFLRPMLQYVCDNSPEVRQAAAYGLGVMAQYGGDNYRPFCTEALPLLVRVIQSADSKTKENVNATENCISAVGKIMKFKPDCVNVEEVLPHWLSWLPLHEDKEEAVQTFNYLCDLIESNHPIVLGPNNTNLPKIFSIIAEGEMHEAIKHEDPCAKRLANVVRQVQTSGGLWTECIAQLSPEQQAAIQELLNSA

Sequence of CRM1 (exportin 1/chromosomal maintenance 1) (O14980 whole entry): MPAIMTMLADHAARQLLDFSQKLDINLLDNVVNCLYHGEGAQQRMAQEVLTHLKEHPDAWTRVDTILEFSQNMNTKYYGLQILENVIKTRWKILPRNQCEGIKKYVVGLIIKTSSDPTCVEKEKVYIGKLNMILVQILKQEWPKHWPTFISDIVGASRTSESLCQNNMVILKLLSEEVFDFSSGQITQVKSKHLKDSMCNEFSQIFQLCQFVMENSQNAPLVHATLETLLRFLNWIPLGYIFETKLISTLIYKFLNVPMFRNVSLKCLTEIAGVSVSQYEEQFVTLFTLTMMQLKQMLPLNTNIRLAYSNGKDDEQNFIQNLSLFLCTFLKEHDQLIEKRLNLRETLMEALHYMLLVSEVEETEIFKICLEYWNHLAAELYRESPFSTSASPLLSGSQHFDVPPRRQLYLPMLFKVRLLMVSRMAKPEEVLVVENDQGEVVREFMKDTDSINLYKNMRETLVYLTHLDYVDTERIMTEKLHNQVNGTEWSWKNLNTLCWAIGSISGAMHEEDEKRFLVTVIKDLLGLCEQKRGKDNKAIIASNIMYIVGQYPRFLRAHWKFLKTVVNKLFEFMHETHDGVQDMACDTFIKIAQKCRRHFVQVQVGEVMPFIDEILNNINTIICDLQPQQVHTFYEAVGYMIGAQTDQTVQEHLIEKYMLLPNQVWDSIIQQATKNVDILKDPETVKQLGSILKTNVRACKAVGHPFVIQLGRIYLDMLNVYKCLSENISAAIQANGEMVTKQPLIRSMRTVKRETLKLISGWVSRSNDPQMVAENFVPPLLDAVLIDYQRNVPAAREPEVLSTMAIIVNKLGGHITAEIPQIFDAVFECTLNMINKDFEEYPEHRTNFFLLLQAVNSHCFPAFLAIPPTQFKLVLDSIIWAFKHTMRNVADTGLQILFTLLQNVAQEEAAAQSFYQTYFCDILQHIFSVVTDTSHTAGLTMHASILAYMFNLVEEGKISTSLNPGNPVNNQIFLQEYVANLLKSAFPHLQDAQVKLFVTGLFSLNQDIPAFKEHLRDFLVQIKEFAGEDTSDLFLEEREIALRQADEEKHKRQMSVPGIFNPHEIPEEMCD

Molecule “CRM1–Alexa Fluor 647 (from UniProt O14980 1-1071) (natural protein)” has a K (D,NPC) in the presence of 10 µM exoKapβ1 [1] of 2.8 µM, a Kd [1] of 500 nM and a reduction of relative occupancy from the standalone value, with 10 µM exoKapβ1 [1] of 51%. The relative occupancy with 10 µM exoImp5 [1] was 59%.

“Kapβ1–Alexa Fluor 488 (from UniProt Q14974 1-876) (natural protein)” gave a Kd [1] of 3100 nM and a relative occupancy with 10 µM exoImp5 [1] of 72%.

B1: cNup214 (cysteine-tagged FG domain of human Nup214) (domain or fragment, UniProt P35658 1809-2090, looked up)
chain: SPGFGQGGSVFGGTSAATTTAATSGFSFCQASGFGSSNTGSVFGQAASTGGIVFGQQSSSSSGSVFGSGNTGRGGGFFSGLGGKPSQDAANKNPFSSASGGFGSTATSNTSNLFGNSGAKTFGGFASSSFGEQKPTGTFSSGGGSVASQGFGFSSPNKTGGFGAAPVFGSPPTFGGSPGFGGVPAFGSAPAFTSPLGSTGGKVFGEGTAAASAGGFGFGSSSNTTSFGTLASQNAPTFGSLSQQTSGFGTQSSGFSGFGSGTGGFSFGSNNSSVQGFGGWRS
With B1 the Kd [2] was 110 ± 20 nM and the binding result (importin-5 (Imp5)) was “binds”.

B2: cNup98 (cysteine-tagged FG domain of human Nup98) (domain or fragment, UniProt P52948 1-498, looked up)
chain: MFNKSFGTPFGGGTGGFGTTSTFGQNTGFGTTSGGAFGTSAFGSSNNTGGLFGNSQTKPGGLFGTSSFSQPATSTSTGFGFGTSTGTANTLFGTASTGTSLFSSQNNAFAQNKPTGFGNFGTSTSSGGLFGTTNTTSNPFGSTSGSLFGPSSFTAAPTGTTIKFNPPTGTDTMVKAGVSTNISTKHQCITAMKEYESKSLEELRLEDYQANRKGPQNQVGAGTTTGLFGSSPATSSATGLFSSSTTNSGFAYGQNKTAFGTSTTGFGTNPGGLFGQQNQQTTSLFSKPFGQATTTQNTGFSFGNTSTIGQPSTNTMGLFGVTQASQPGGLFGTATNTSTGTAFGTGTGLFGQTNTGFGAVGSTLFGNNKLTTFGSSTTSAPSFGTTSGGLFGNKPTLTLGTNTNTSNFGFGTNTSGNSIFGSKPAPGTLGTGLGAGFGTALGAGQASLFGNNQPKIGGPLGTGAFGAPGFNTTTATLGFGAPQAPVALTDPNASAAQQ
B2: binds (importin-5 (Imp5)).

B3: cNup153 (cysteine-tagged FG domain of human Nup153) (domain or fragment, UniProt P49790 874-1475, looked up)
chain: CESAKPGTKSGFKGFDTSSSSSNSAASSSFKFGVSSSSSGPSQTLTSTGNFKFGDQGGFKIGVSSDSGSINPMSEGFKFSKPIGDFKFGVSSESKPEEVKKDSKNDNFKFGLSSGLSNPVSLTPFQFGVSNLGQEEKKEELPKSSSAGFSFGTGVINSTPAPANTIVTSENKSSFNLGTIETKSASVAPFTCKTSEAKKEEMPATKGGFSFGNVEPASLPSASVFVLGRTEEKQQEPVTSTSLVFGKKADNEEPKCQPVFSFGNSEQTKDENSSKSTFSFSMTKPSEKESEQPAKATFAFGAQTSTTADQGAAKPVFSFLNNSSSSSSTPATSAGGGIFGSSTSSSNPPVATFVFGQSSNPVSSSAFGNTAESSTSQSLLFSQDSKLATTSSTGTAVTPFVFGPGASSNNTTTSGFGFGATTTSSSAGSSFVFGTGPSAPSASPAFGANQTPTFGQSQGASQPNPPGFGSISSSTALFPTGSQPAPPTFGTVSSSSQPPVFGQQPSQSAFGSGTTPNSSSAFQFGSSTTNFNFTNNSPSGVFTFGANSSTPAASAQPSGSGGFPFNQSPAAFTVGSNGKNVFSSSGTSFSGRKIKTAVRRRK
B3: binds (importin-5 (Imp5)).

B4: cNup62 (cysteine-tagged FG domain of human Nup62) (domain or fragment, UniProt P37198 1-240, looked up)
chain: MSGFNFGGTGAPTGGFTFGTAKTATTTPATGFSFSTSGTGGFNFGAPFQPATSTPSTGLFSLATQTPATQTTGFTFGTATLASGGTGFSLGIGASKLNLSNTAATPAMANPSGFGLGSSNLTNAISSTVTSSQGTAPTGFVFGPSTTSVAPATTSGGFSFTGGSTAQPSGFNIGSAGNSAQPTAPATLPFTPATPAATTAGATQPAAPTPTATITSTGPSLFASIATAPTSSATTGLSLC
For B4, the Kd [2] was 2860 ± 380 nM and the binding result (importin-5 (Imp5)) was “binds”.
